From patent publication US20030049732A1 (Human Genome Sciences, published 2003)

T1: Nod1 V41Q (human, UniProt Q9Y239 1-953)
T1 construct: also called V41 Q point mutant in the CARD
T1 sequence: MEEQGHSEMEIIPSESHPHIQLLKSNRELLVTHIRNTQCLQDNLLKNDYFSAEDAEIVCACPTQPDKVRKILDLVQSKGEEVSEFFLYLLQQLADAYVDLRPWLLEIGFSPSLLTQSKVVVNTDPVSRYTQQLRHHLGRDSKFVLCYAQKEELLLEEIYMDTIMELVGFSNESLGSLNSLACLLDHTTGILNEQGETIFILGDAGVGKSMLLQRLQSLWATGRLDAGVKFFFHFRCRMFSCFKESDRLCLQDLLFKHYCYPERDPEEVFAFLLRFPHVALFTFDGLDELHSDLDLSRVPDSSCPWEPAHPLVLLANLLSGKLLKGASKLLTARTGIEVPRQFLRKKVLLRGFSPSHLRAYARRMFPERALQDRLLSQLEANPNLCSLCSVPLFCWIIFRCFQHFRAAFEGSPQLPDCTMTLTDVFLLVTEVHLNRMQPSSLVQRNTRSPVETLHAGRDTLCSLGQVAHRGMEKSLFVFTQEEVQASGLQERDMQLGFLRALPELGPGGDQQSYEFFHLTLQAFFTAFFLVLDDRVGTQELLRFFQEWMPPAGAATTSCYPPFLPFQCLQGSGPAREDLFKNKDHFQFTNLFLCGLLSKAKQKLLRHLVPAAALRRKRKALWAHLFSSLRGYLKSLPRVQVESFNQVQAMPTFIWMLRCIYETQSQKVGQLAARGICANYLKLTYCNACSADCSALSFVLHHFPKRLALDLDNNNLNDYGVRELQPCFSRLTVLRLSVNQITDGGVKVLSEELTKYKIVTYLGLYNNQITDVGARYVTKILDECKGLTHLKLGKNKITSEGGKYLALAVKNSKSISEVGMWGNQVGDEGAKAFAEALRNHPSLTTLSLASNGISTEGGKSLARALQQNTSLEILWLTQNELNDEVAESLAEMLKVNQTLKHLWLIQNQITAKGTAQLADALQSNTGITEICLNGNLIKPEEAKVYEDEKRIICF

T2: Nod1 (human, UniProt Q9Y239 1-953)
T2 construct: also called wild-type Nod1; WT Nod1
T2 sequence: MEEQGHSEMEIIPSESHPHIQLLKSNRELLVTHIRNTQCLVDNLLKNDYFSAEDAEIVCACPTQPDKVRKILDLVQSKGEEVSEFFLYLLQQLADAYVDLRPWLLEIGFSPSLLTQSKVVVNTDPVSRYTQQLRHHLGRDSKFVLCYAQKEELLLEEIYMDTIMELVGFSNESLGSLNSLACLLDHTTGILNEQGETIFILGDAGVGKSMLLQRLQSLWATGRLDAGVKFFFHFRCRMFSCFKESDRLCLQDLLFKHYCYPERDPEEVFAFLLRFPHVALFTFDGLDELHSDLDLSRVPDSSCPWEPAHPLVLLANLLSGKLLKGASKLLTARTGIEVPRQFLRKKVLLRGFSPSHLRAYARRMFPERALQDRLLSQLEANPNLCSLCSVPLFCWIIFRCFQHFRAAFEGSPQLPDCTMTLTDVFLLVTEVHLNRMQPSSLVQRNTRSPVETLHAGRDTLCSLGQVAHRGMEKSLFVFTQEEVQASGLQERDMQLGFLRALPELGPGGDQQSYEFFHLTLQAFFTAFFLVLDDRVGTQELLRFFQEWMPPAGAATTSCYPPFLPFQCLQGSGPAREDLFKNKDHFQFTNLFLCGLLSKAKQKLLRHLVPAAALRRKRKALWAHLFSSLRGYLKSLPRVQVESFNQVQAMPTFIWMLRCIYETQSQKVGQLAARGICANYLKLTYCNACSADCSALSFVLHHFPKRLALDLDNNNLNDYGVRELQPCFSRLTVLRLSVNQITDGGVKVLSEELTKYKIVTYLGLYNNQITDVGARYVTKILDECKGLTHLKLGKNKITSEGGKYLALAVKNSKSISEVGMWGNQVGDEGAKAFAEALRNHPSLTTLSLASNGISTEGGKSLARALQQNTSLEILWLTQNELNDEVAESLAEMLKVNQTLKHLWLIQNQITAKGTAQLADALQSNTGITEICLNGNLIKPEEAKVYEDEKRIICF


Assays:
[1] = target: T1, Nod1 V41Q; test: co-immunoprecipitation from co-transfected 293T cells, immunoblot
From the text: Both Ced-4 and Apaf-1 associate with their target caspases via their corresponding CARDs (Zou et al., Cell, 90:405 (1997); Hu et al., Proc. Natl. Acad. Sci. USA, 95:4386 (1998); ); Chinnaiyan et al., Nature, 388:728 (1997); Hu et al., Proc. Natl. Acad. Sci. USA, 95:4386 (1998); Srinivasula et al., Mol. Cell, 1:946 (1998); Chaudhary et al., J. Biol. Chem., 273:17708 (1998); Yang et al., Science, 281:1355 (1998)).

[2] = target: T2, Nod1; test: co-immunoprecipitation, tagged proteins transiently expressed in 293T cells
From the text: The CARD and its structurally related death effector domain (DED) are peptide motifs that mediate interactions between apoptosis-regulatory proteins (Science 281:1301 (1998); Hofmann et al., Trends Biochem. Sci. 22:155 (1998)).

Binder	binding result [1]	binding result [2]
NIK (enzyme, UniProt Q99558 1-947, looked up, also called N1K) MAVMEMACPGAPGSAVGQQKELPKAKEKTPPLGKKQSSVYKLEAVEKSPVFCGKWEILNDVITKGTAKEGSEAGPAAISIIAQAECENSQEFSPTFSERIFIAGSKQYSQSESLDQIPNNVAHATEGKMARVCWKGKRRSKARKKRKKKSSKSLAHAGVALAKPLPRTPEQESCTIPVQEDESPLGAPYVRNTPQFTKPLKEPGLGQLCFKQLGEGLRPALPRSELHKLISPLQCLNHVWKLHHPQDGGPLPLPTHPFPYSRLPHPFPFHPLQPWKPHPLESFLGKLACVDSQKPLPDPHLSKLACVDSPKPLPGPHLEPSCLSRGAHEKFSVEEYLVHALQGSVSSGQAHSLTSLAKTWAARGSRSREPSPKTEDNEGVLLTEKLKPVDYEYREEVHWATHQLRLGRGSFGEVHRMEDKQTGFQCAVKKVRLEVFRAEELMACAGLTSPRIVPLYGAVREGPWVNIFMELLEGGSLGQLVKEQGCLPEDRALYYLGQALEGLEYLHSRRILHGDVKADNVLLSSDGSHAALCDFGHAVCLQPDGLGKSLLTGDYIPGTETHMAPEVVLGRSCDAKVDVWSSCCMMLHMLNGCHPWTQFFRGPLCLKIASEPPPVREIPPSCAPLTAQAIQEGLRKEPIHRVSAAELGGKVNRALQQVGGLKSPWRGEYKEPRHPPPNQANYHQTLHAQPRELSPRAPGPRPAEETTGRAPKLQPPLPPEPPEPNKSPPLTLSKEESGMWEPLPLSSLEPAPARNPSSPERKATVPEQELQQLEIELFLNSLSQPFSLEEQEQILSCLSIDSLSLSDDSEKNPSKASQSSRDTLSSGVHSWSSQAEARSSSWNMVLARGRPTDTPSYFNGVKVQIQSLNGEHLHIREFHRVKVGDIATGISSQIPAAAFSLVTKDGQPVRYDMEVPDSGIDLQCTLAPDGSFAWSWRVKHGQLENRP	–	no binding
IKKb (enzyme, UniProt O14920 1-756, looked up, also called IKKβ) MSWSPSLTTQTCGAWEMKERLGTGGFGNVIRWHNQETGEQIAIKQCRQELSPRNRERWCLEIQIMRRLTHPNVVAARDVPEGMQNLAPNDLPLLAMEYCQGGDLRKYLNQFENCCGLREGAILTLLSDIASALRYLHENRIIHRDLKPENIVLQQGEQRLIHKIIDLGYAKELDQGSLCTSFVGTLQYLAPELLEQQKYTVTVDYWSFGTLAFECITGFRPFLPNWQPVQWHSKVRQKSEVDIVVSEDLNGTVKFSSSLPYPNNLNSVLAERLEKWLQLMLMWHPRQRGTDPTYGPNGCFKALDDILNLKLVHILNMVTGTIHTYPVTEDESLQSLKARIQQDTGIPEEDQELLQEAGLALIPDKPATQCISDGKLNEGHTLDMDLVFLFDNSKITYETQISPRPQPESVSCILQEPKRNLAFFQLRKVWGQVWHSIQTLKEDCNRLQQGQRAAMMNLLRNNSCLSKMKNSMASMSQQLKAKLDFFKTSIQIDLEKYSEQTEFGITSDKLLLAWREMEQAVELCGRENEVKLLVERMMALQTDIVDLQRSPMGRKQGGTLDDLEEQARELYRRLREKPRDQRTEGDSQEMVRLLLQAIQSFEKKVRVIYTQLSKTVVCKQKALELLPKVEEVVSLMNEDEKTVVRLQEKRQKELWNLLKIACSKVRGPVSGSPDSMNASRLSQPGQLMSQPSTASNSLPEPAKKSEELVAEAHNLCTLLENAIQDTVREQDQSFTALDWSWLQTEEEEHSCLEQAS	–	no binding

More lines, now with the values ahead:

binding result [1]	binding result [2]	Binder
no binding	–	Caspase-9 C287S (enzyme, UniProt P55211 1-416, looked up, Named only once, in the sentence on Nod1 V41Q) MDEADRRLLRRCRLRLVEELQVDQLWDALLSRELFRPHMIEDIQRAGSGSRRDQARQLIIDLETRGSQALPLFISCLEDTGQDMLASFLRTNRQAAKLSKPTLENLTPVVLRPEIRKPEVLRPETPRPVDIGSGGFGDVGALESLRGNADLAYILSMEPCGHCLIINNVNFCRESGLRTRTGSNIDCEKLRRRFSSLHFMVEVKGDLTAKKMVLALLELAQQDHGALDCCVVVILSHGCQASHLQFPGAVYGTDGCPVSVEKIVNIFNGTSCPSLGGKPKLFFIQASGGEQKDHGFEVASTSPEDESPGSNPEPDATPFQEGLRTFDQLDAISSLPTPSDIFVSYSTFPGFVSWRDPKSGSWYVETLDDIFEQWAHSEDLQSLLLRVANAVSVKGIYKQMPGCFNFLRKKLFFKTS
–	no binding	IKKa (enzyme, UniProt O15111 1-745, looked up, also called IKKα) MERPPGLRPGAGGPWEMRERLGTGGFGNVCLYQHRELDLKIAIKSCRLELSTKNRERWCHEIQIMKKLNHANVVKACDVPEELNILIHDVPLLAMEYCSGGDLRKLLNKPENCCGLKESQILSLLSDIGSGIRYLHENKIIHRDLKPENIVLQDVGGKIIHKIIDLGYAKDVDQGSLCTSFVGTLQYLAPELFENKPYTATVDYWSFGTMVFECIAGYRPFLHHLQPFTWHEKIKKKDPKCIFACEEMSGEVRFSSHLPQPNSLCSLVVEPMENWLQLMLNWDPQQRGGPVDLTLKQPRCFVLMDHILNLKIVHILNMTSAKIISFLLPPDESLHSLQSRIERETGINTGSQELLSETGISLDPRKPASQCVLDGVRGCDSYMVYLFDKSKTVYEGPFASRSLSDCVNYIVQDSKIQLPIIQLRKVWAEAVHYVSGLKEDYSRLFQGQRAAMLSLLRYNANLTKMKNTLISASQQLKAKLEFFHKSIQLDLERYSEQMTYGISSEKMLKAWKEMEEKAIHYAEVGVIGYLEDQIMSLHAEIMELQKSPYGRRQGDLMESLEQRAIDLYKQLKHRPSDHSYSDSTEMVKIIVHTVQSQDRVLKELFGHLSKLLGCKQKIIDLLPKVEVALSNIKEADNTVMFMQGKRQKEIWHLLKIACTQSSARSLVGSSLEGAVTPQTSAWLPPTSAEHDHSLSCVVTPQDGETSAQMIEENLNCLGHLSTIIHEANEEQGNSMMNLDWSWLTE
–	no binding	FADD (other, UniProt Q13158 1-208, looked up) MDPFLVLLHSVSSSLSSSELTELKFLCLGRVGKRKLERVQSGLDLFSMLLEQNDLEPGHTELLRELLASLRRHDLLRRVDDFEAGAAAGAAPGEEDLCAAFNVICDNVGKDWRRLARQLKVSDTKIDSIEDRYPRNLTERVRESLRIWKNTEKENATVAHLVGALRSCQMNLVADLVQEVQQARDLQNRSGAMSPMSWNSDASTSEAS
